Reference: patent publication US20260042831A1, “METHODS OF TREATING SARCOIDOSIS WITH A TNF-A ANTIBODY AND ASSOCIATED COMPOSITIONS AND METHODS” (XENTRIA, INC., priority 2022, published 2026)

Molecular target: FcγRIIb (UniProt P31994)
Experiment: Octet QK384, FcγRIIb on Ni-NTA biosensors, 6 XTMAB-16 concentrations, 1:2 heterogeneous ligand model fit

Chain of FcγRIIb (P31994 43-217): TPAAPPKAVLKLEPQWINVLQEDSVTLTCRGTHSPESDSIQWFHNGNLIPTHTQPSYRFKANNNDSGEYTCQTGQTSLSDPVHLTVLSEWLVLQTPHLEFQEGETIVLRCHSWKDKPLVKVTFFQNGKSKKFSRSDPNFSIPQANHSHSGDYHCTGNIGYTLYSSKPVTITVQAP

- Kd: 640 nM
Substance: XTMAB-16 (antibody)
